These results are taken from the supplement of paper PMC10724198.

± gives the standard deviation of the averaged measurements.
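Further: PSI is a weighted mean of sequencing reads over stability bins, variants kept only with over 10 reads, mCherry proximal and sfGFP distal, peptide attached via GGGS linker.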

In this data set the test system is Saccharomyces cerevisiae. Kind of data set: protein stability index of tFT-peptide fusion (C-terminal peptide) (PSI (0-1 scale)); higher = more stable (slower turnover). To be noted: genetic background: wild type; temperature: 30 C. As to the method:
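Multiplexed protein stability (MPS) profiling in S. cerevisiae. Random 12-aa peptides (tFT-X12 library) are fused to the C-terminus of a sfGFP-mCherry tandem fluorescent timer, after mCherry and a GGGS linker. Cells are FACS-sorted into 8 mCherry/sfGFP bins and deep-sequenced. The protein stability index (PSI) is the read-weighted bin average, scaled from 0 (unstable) to 1 (stable). Only peptides with >10 reads are reported; cells were grown at 30 °C in SC-His with glucose.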
In turn, EKGRKKTYGDEK yielded a protein stability index of 0.669 ± 0.02.

Take EKGSIYVVQYGK: the protein stability index was found to be 0.683 ± 0.022.

Sequence EKHNNNRYKQYL yielded a protein stability index of 0.7255 ± 0.0052.

As to EKKEHNHKVKYN, the protein stability index was 0.626 ± 0.026.

In the case of EKKKKIKNKESI, the protein stability index was found to be 0.6932 ± 0.0036.

EKKKKKAKKEKN displayed a protein stability index of 0.764 ± 0.045.

EKMDIEKKVEGS: the protein stability index worked out at 0.812 ± 0.12.

EKNRRCQKRKKK showed a protein stability index of 0.726 ± 0.054.

Sequence EKQIREERRKIE registered a protein stability index of 0.704 ± 0.062.

EKRDENENTNKK displayed a protein stability index of 0.66 ± 0.072.

EKRERKRDSGHR had a protein stability index of 0.685 ± 0.063.

Take EKTQQMPQPNNQ: the protein stability index came to 0.663 ± 0.007.

Consider EKTTDIKENERR, for which the protein stability index is 0.692 ± 0.029.

On to ELINQENQPAYE, for which the protein stability index is 0.671 ± 0.038.

ELRCSRPIHSDF showed a protein stability index of 0.681 ± 0.013.

ELRISSTTVTSP yielded a protein stability index of 0.664 ± 0.008.

ELRTKRGASNPR: the protein stability index is 0.7097 ± 0.0021.

Regarding ELSNLRGLHTCT, the protein stability index worked out at 0.654 ± 0.02.

ELVSFPIGGMGS: the protein stability index was found to be 0.671 ± 0.056.

ENDRKKDKERIK came in with a protein stability index of 0.678 ± 0.013.

In turn, ENKIKERPKMRY gave a protein stability index of 0.658 ± 0.026.

Turning to ENLVLRDRGRGM, the protein stability index is 0.692 ± 0.017.

In turn, ENNKRRTKRHKE returned a protein stability index of 0.62791 ± 0.00025.

The sequence ENVINGLITIKK gave a protein stability index of 0.742 ± 0.039.

Turning to EPDCLVSSSVGI, the protein stability index came to 0.686 ± 0.049.

As for EPDQERKSIQGM, the protein stability index came out at 0.7 ± 0.013.

As to EPPRSPRSLPPL, the protein stability index was found to be 0.661 ± 0.0073.

In the case of EPTLLVRMVANR, the protein stability index was 0.529 ± 0.026.

Take EQGIRHVRAIVV: the protein stability index came out at 0.539 ± 0.012.

The sequence EQRNLELSGHIC gave a protein stability index of 0.725 ± 0.12.

ERCVCLRGVSSG showed a protein stability index of 0.708 ± 0.011.

Regarding EREGVREGEGRV, the protein stability index came to 0.654 ± 0.02.

With ERGGWGGGSEVG, the protein stability index turned out to be 0.684 ± 0.091.

In turn, ERIKQGKKKRGT returned a protein stability index of 0.778 ± 0.12.

In turn, ERKGIIIGHSHS gave a protein stability index of 0.71 ± 0.037.

In turn, ERKKPKKKRMRY yielded a protein stability index of 0.706 ± 0.011.

For ERLHRRRRGECA, the protein stability index is 0.6743 ± 0.0061.

ERPQTKPCQTPL came in with a protein stability index of 0.728 ± 0.038.

Regarding ERWSHNKEDDRN, the protein stability index was determined as 0.6577 ± 0.0048.

ERYKKRGKTNKV gave a protein stability index of 0.662 ± 0.0076.

ESAGLAGLSRAA came in with a protein stability index of 0.668 ± 0.022.

The sequence ESEKKHNKKRRV came in with a protein stability index of 0.654 ± 0.069.

Sequence ESLRNGKKYNKL showed a protein stability index of 0.7417 ± 0.0017.

ESLSAVAAGRGM displayed a protein stability index of 0.689 ± 0.024.

ETEQTSIRRIKQ returned a protein stability index of 0.728 ± 0.012.

The sequence ETKKGKKKKMTM had a protein stability index of 0.682 ± 0.0069.

For ETVIQRFLSGHI, the protein stability index stood at 0.699 ± 0.017.

The sequence EVDSTLAPHGHP registered a protein stability index of 0.866 ± 0.041.

With EVEGFLFVFEVK, the protein stability index was 0.609 ± 0.015.

Sequence EVFGLWQGCFVW yielded a protein stability index of 0.728 ± 0.058.

Take EVGQLQPNGGWV: the protein stability index is 0.661 ± 0.033.

For EVNYKKRQNKKN, the protein stability index was 0.71 ± 0.0066.

As for EVTRAGEDAGDG, the protein stability index was found to be 0.643 ± 0.023.

With EVTSQGWRNGVD, the protein stability index was determined as 0.742 ± 0.028.

Sequence EVWQGRLKGVLG came in with a protein stability index of 0.691 ± 0.031.

EWEEGREIGGRV: the protein stability index was 0.69633 ± 0.00068.

For the sequence EWGEEDRDGNGR, the protein stability index was 0.721 ± 0.053.

Take EWPTESSLSSET: the protein stability index is 0.689 ± 0.081.

In turn, EWTTEQRSVGPR came in with a protein stability index of 0.683 ± 0.02.

The sequence EWVCRAGVQGGA had a protein stability index of 0.691 ± 0.017.

For EWVYSGDGMGVG, the protein stability index amounted to 0.622 ± 0.03.

With EWYRNNFFFLDL, the protein stability index amounted to 0.772 ± 0.02.

Consider EYLHPARITGVL, for which the protein stability index was found to be 0.733 ± 0.11.

Sequence EYRVRHSVDARS yielded a protein stability index of 0.6241 ± 0.0019.
